Target: NPY Y1 receptor
Experiment: in vitro NPY Y1 receptor binding assay; tracer and cells not stated

NPY Y1 receptor, sequence (P25929 whole entry): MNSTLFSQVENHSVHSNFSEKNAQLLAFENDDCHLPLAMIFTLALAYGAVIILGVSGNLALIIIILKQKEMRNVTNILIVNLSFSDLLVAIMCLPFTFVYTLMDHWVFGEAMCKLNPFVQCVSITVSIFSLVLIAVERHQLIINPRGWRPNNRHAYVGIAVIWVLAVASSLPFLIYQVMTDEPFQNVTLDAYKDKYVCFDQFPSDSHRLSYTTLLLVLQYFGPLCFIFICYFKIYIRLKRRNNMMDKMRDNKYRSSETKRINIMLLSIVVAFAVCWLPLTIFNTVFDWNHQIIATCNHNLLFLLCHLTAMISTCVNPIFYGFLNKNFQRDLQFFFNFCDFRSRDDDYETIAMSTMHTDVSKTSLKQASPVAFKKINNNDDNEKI

NPY(human, rat) control (from UniProt P01303 29-64) (peptide)
IC50: 1.09 nM

Source: patent US20090099074A1, “MODULATING FOOD INTAKE” (CONJUCHEM BIOTECHNOLOGIES INC., priority 2007, published 2009)
